Experimental data: patent publication US20250090676A1

Target: human folate receptor alpha on cells (human) (UniProt P15328)
Experiment: cell-based or functional assay

human folate receptor alpha on cells (human), sequence (P15328 25-234 limits assumed): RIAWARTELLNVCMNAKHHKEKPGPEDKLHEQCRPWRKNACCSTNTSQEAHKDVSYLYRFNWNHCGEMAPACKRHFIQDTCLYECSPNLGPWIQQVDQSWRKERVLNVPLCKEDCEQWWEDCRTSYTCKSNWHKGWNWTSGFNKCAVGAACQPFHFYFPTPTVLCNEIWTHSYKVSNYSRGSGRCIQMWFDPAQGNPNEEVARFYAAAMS

“ADC Molecule 21 (Mov19-sulfo-SPDB-DM4) (antibody)” was tested, and the fold shift of cell killing EC50 on Igrov1 cells on addition of naked antibody was 3 fold.
